# Measurements as given in paper PMC11441981.
# B1: GST-tagged CG9590 (Drosophila FAM114A) [Drosophila] / Vap33 [Drosophila (endogenous in S2 cells)] (parent)
# chain 1: MAKNPKKEEDGGNDWAQSDEDDNWDDWGDDDDKFVHVEKEQQPQEKVSSRNDAKGTAENQEKLETPRISAPATASATSSSWGLWGGKLSSVLTTATEGLGTITTQVNQGLNQIIGVPDPEELARINVAEKAEKAAKAPPEENVDDEKESSAAFGLDFVTNLGSKVLNTGLDTLEGIGKKTMTILQDNDPKLMNKRKLLGLEANSPNLSAVLLEAKKEADQMEQSLQQLQLKRQKAQLRFEILFENYCGLVHFEALEILSKESRLKLDTLLDAVSGNARAELQETINEVKELIELEDLDVESEGDYEAEELSERLAATIKDAELGIQFDDIANHWTQSLSWLTSEEATAADLEQAYAKSIHALSEACALEMCKLHKIAELLLVKPHHSTANEVDGVVNLCQQFNGHLQGLSHRFAAVLSGKSETEESKGRVSTFFSEMLSAVQFIEKAYKLFTPILQMGAV
# chain 2: MSKSLFDLPLTIEPEHELRFVGPFTRPVVTIMTLRNNSALPLVFKIKTTAPKRYCVRPNIGKIIPFRSTQVEICLQPFVYDQQEKNKHKFMVQSVLAPMDADLSDLNKLWKDLEPEQLMDAKLKCVFEMPTAEANAENTSGGGAVGGGTGAAGGGSAGANTSSASAEALESKPKLSSEDKFKPSNLLETSESLDLLSGEIKALRECNIELRRENLHLKDQITRFRSSPAVKQVNEPYAPVLAEKQIPVFYIAVAIAAAIVSLLLGKFFL
# Variants of: B1
# Assay: GST pull-down from S2 cell lysate with mass spectrometry (volcano plot of spectral intensities)
# Settings: three biological replicates, read off a plot
row,screen value,Variant
1,5.2 log2,chain 1 MAKNPKKEEDGGNDWAQSDEDDNADDAGDDDDKFVHVEKEQQPQEKVSSRNDAKGTAENQEKLETPRISAPATASATSSSWGLWGGKLSSVLTTATEGLGTITTQVNQGLNQIIGVPDPEELARINVAEKAEKAAKAPPEENVDDEKESSAAFGLDFVTNLGSKVLNTGLDTLEGIGKKTMTILQDNDPKLMNKRKLLGLEANSPNLSAVLLEAKKEADQMEQSLQQLQLKRQKAQLRFEILFENYCGLVHFEALEILSKESRLKLDTLLDAVSGNARAELQETINEVKELIELEDLDVESEGDYEAEELSERLAATIKDAELGIQFDDIANHWTQSLSWLTSEEATAADLEQAYAKSIHALSEACALEMCKLHKIAELLLVKPHHSTANEVDGVVNLCQQFNGHLQGLSHRFAAVLSGKSETEESKGRVSTFFSEMLSAVQFIEKAYKLFTPILQMGAV [chain 1 W24A W27A]
